# T1: Rab5A (UniProt P20339 1-215)
# T1 construct: Rab5A, amplified from its cDNA clone and put into pGEX-6p-1 (BamHI/XhoI); about 25 kDa after tag cleavage; source: E. coli BL21CodonPlus(DE3)RIPL, purified (GST Sepharose 4B, PreScission cleavage, second GST Sepharose pass); not shown: GST, N-terminal, cleaved
# T1 sequence (looked up): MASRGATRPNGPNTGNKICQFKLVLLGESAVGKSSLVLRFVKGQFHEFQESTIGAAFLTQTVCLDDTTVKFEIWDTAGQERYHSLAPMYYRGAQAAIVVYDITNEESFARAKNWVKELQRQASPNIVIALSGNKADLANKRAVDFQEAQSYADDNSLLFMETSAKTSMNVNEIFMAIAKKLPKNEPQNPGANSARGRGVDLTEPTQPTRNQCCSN
# T2: Rab11A (UniProt P62491 1-216)
# T2 construct: Rab11A, amplified from its cDNA clone and put into pGEX-6p-1 (BamHI/XhoI); about 25 kDa after tag cleavage; source: E. coli BL21CodonPlus(DE3)RIPL, purified (GST Sepharose 4B, PreScission cleavage, second GST Sepharose pass); not shown: GST, N-terminal, cleaved
# T2 sequence (looked up): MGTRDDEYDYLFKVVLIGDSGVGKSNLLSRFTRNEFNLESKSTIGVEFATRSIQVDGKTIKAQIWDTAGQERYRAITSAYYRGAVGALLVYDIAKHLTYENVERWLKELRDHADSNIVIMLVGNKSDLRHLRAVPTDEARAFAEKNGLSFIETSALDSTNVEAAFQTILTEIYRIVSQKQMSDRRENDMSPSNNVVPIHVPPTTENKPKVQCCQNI
# B1: C9orf72 (N-terminal His6, pOPINF-C9orf72) (natural protein, human, UniProt Q96LT7 1-481, looked up)
# chain: MSTLCPPPSPAVAKTEIALSGKSPLLAATFAYWDNILGPRVRHIWAPKTEQVLLSDGEITFLANHTLNGEILRNAESGAIDVKFFVLSEKGVIIVSLIFDGNWNGDRSTYGLSIILPQTELSFYLPLHRVCVDRLTHIIRKGRIWMHKERQENVQKIILEGTERMEDQGQSIIPMLTGEVIPVMELLSSMKSHSVPEEIDIADTVLNDDDIGDSCHEGFLLNAISSHLQTCGCSVVVGSSAEKVNKIVRTLCLFLTPAERKCSRLCEAESSFKYESGLFVQGLLKDSTGSFVLPFRQVMYAPYPTTHIDVDVNTVKQMPPCHEHIYNQRRYMRSELTAFWRATSEEDMAQDTIIYTDESFTPDLNIFQDVLHRDTLVKAFLDQVFQLKPGLSLRSTFLAQFLLVLHRKALTLIKYIEDDTQKGKKPFKSLRNLKIDLDLTAEGDLNIIMALAEKIKPGLHSFIFGRPFYTSVQERDVLMTF
# notes: the homology model counts residues up to 481; No tag cleavage is described; also called His6-C9orf72; recombinant C9orf72; source: Sf9, baculovirus, purified (HisTrap HP, Superdex200 size-exclusion chromatography); not shown: His6, N-terminal, kept
# What was measured:
# Assay in all cases: SEC; 3x molar excess of Rab mixed with C9orf72, overnight on ice with 20 mM EDTA; gel filtration in 20 mM Tris pH 8.0, 300 mM NaCl, 2 mM DTT, 20 mM EDTA (Superdex75 in the methods, Superdex 200 10/30 in the legend); 21 uM C9orf72 and 48 uM Rab per run; fractions checked by SDS-PAGE and western blot
# Rab5A = target: T1, Rab5A; conditions: both partners purified
# Rab11A = target: T2, Rab11A; conditions: both partners purified
# [1] = target: the molecule itself
binder,measurement,setting,value
B1,stoichiometry N,Rab5A,1
same,stoichiometry N,Rab11A,1
same,binding result,[1],binds
